B1: sADH (C. p.): Candida parapsilosis M203011 secondary alcohol dehydrogenase, NADPH, S-installing (SEQ ID NO: 17) (protein, listed as Candida parapsilosis)
chain: MGEIESYCNKELGPLPTKAPTLSKNVLDLFSLKGKVASVTGSSGGIGWAVAEAYAQAGADVAIWYNSHPADEKAEHLQKTYGVHSKAYKCNISDPKSVEETISQQEKDFGTIDVFVANAGVTWTQGPEIDVDNYDSWNKIISVDLNGVYYCSHNIGKIFKKNGKGSLIITSSISGKIVNIPQLQAPYNTAKAACTHLAKSLAIEWAPFARVNTISPGYIDTDITDFASKDMKAKWWQLTPLGREGLTQELVGGYLYLASNASTFTTGSDVVIDGGYTCP
B2: sADH (T. b.): Thermoanaerobacter brockii HTD4 secondary alcohol dehydrogenase, NADPH, R-installing (SEQ ID NO: 23) (protein, listed as Thermoanaerobacter brockii)
chain: MKGFAMLSIGKVGWIEKEKPAPGPFDAIVRPLAVAPCTSDIHTVFEGAIGERHNMILGHEAVGEVVEVGSEVKDFKPGDRVVVPAITPDWRTSEVQRGYHQHSGGMLAGWKFSNVKDGVFGEFFHVNDADMNLAHLPKEIPLEAAVMIPDMMTTGFHGAELADIELGATVAVLGIGPVGLMAVAGAKLRGAGRIIAVGSRPVCVDAAKYYGATDIVNYKDGPIESQIMNLTEGKGVDAAIIAGGNADIMATAVKIVKPGGTIANVNYFGEGEVLPVPRLEWGCGMAHKTIKGGLCPGGRLRMERLIDLVFYKRVDPSKLVTHVFRGFDNIEKAFMLMKDKPKDLIKPVVILA
B3: adh (L. p.): Leuconostoc pseudomesenteroides CHCC 2114 secondary alcohol dehydrogenase, NADPH, S-installing (SEQ ID NO: 19) (protein)
chain: MTKKVAMVTGGAQGIGEAIVRRLSADGFAVAVADLNEAKSKEVATDIEKNGGTAIAVKLDVSDREGFFAAVKEVAEKLGGFDVLVNNAGLGPTTPIDTITPELFDKVYHINVAGDIWGIQAAVEQFKKNGNGGKIINATSQAGVVGNPNLSLYSSTKFAVRGLTQVAARDLAEQNITVNAYAPGIVKTPMMFDIAHEVGKNAGKDDEWGMQTFAKDIALKRLSEPEDVAAAVAFLAGPDSNYITGQTIEVDGGMQFH
modifications: Leuconostoc pseudomesenteroides
B4: sADH (C. b.): Clostridium beijerinckii NRRL B593 secondary alcohol dehydrogenase, NADPH, R-installing (SEQ ID NO: 21) (protein, listed as Clostridium beijerinckii)
chain: MKGFAMLGINKLGWIEKERPVAGSYDAIVRPLAVSPCTSDIHTVFEGALGDRKNMILGHEAVGEVVEVGSEVKDFKPGDRVIVPCTTPDWRSLEVQAGFQQHSNGMLAGWKFSNFKDGVFGEYFHVNDADMNLAILPKDMPLENAVMITDMMTTGFHGAELADIQMGSSVVVIGIGAVGLMGIAGAKLRGAGRIIGVGSRPICVEAAKFYGATDILNYKNGHIVDQVMKLTNGKGVDRVIMAGGGSETLSQAVSMVKPGGIISNINYHGSGDALLIPRVEWGCGMAHKTIKGGLCPGGRLRAEMLRDMVVYNRVDLSKLVTHVYHGFDHIEEALLLMKDKPKDLIKAVVIL

Assays:
[1] = sADH (ADH) activity in crude cell lysate of E. coli production strains, oxidation of NAD(P)H with acetoin; format: biochemical; conditions: expressed in E. coli, excess substrate, NADPH
Method: (§1) Alcohol dehydrogenase (ADH) activity was determined by measuring the oxidation of NAD(P)H. The reaction mixture contained 50 mM 3-(N-morpholino) propanesulfonic acid (MOPS) pH 7.0, 25 mM acetoin and 0.2 mM NAD(P)H. The consumption of NAD(P)H was monitored at 340 nm. One specific unit of ADH activity corresponds to the oxidation of 1 nmol of NAD(P)H per minute per mg of protein.
The resulting E. coli strains were cultured in modified M9 medium, containing 50 g/L glucose, at 30° C. for 40 h (FIG. 4B). […] The fourth strain, expressing adh (C. b.), maintained a relatively low acetoin concentration (less than 6% of total production) and produced 13.8 g/L total 23BD as a mixture of (R,R)-23BD and meso-23BD stereoisomers forming 74% and 21% of total production respectively (FIG. 4B). The strains expressing adh (T. b.) and adh (C. p.) produced 2.4 g/L and 14.2 g/L 23BD respectively with both isomers formed in roughly equal amounts in each. […] Enzyme activities measured from crude cell lysate isolated during production were high for both sADH (C. p.) and sADH (C. b.), at 265 and 440 nmol min^−1 mg^−1 respectively, when excess substrate was used (FIG. 4B). […] The major 23BD product of each of the adh expressing strains matched the stereochemistry predicted by previous characterization (41-43).

[2] = ADH activity in crude cell lysate of modified S. elongatus strains, oxidation of NAD(P)H with acetoin; format: biochemical; conditions: for ADH enzyme activity in crude cell lysate: expressed in S. elongatus, lysate isolated during production
Method: Enzyme Assays. S. elongatus cells were collected 72 h after induction by centrifugation (4000 g, 5 min, washed in 50 mM potassium phosphate buffer (pH 7.5) and resuspended in the same buffer. Crude extract were prepared with 0.1-mm glass beads and a Mini bead beater (Mini Bead Beater 8 (BioSpec Products, Inc., Bartlesville, Okla.)). The total protein determination was performed by Advanced Protein Assay Reagent from Cytoskeleton, Inc. (Denver, Colo.).
as §1
23BD production was detected in three out of four S. elongatus strains (FIG. 4C). […] The strain expressing adh (T. b.) produced 301 mg/L (R,R)-23BD with trace amounts of meso-23BD but also allowed for accumulation of acetoin (FIG. 4C). The strain expressing adh (C. b.) produced 270 mg/L (R,R)-23BD (major) and undetectable levels of acetoin, indicating high flux through the intermediate. The strain expressing adh (C. p.) produced 65 mg L^−1 23BD, with meso-23BD as the primary product and accumulated toxic levels of acetoin. The remaining S-installing adh (L. p.) was not active in S. elongatus, resulting only in accumulation of acetoin. […] Activity for adh (C. p.) was roughly 5-fold higher again than adh (C. b.), however low production and acetoin accumulation was observed, similar to the result in E. coli. […] The two sADH with highest production and lowest acetoin accumulation were further tested with the stronger ALDC gene alsD (A. h.). Both strains increased production, yielding 568 mg L^−1 from adh (T. b.) and 952 mg L^−1 from adh (C. b.), the latter of which is 3 fold higher than production with alsD (E. a.) over 72 hours (FIG. 4C).

Row | Molecule | sADH enzyme activity in crude cell lysate [1] | fold higher activity than adh (C. b.) ([2]; S. elongatus crude cell lysate) | ADH enzyme activity in crude cell lysate [2] | fold higher activity than adh (T. b.) ([2]; S. elongatus crude cell lysate)
1 | B1 | 265 nmol/min/mg | roughly 5 fold | – | –
2 | B2 | Relatively low activity | – | 6.3 nmol min^−1 mg ^−1 | –
3 | B3 | – | – | could not be detected | –
4 | B4 | 440 nmol/min/mg | – | 56.3 nmol min^−1 mg ^−1 | roughly 10 fold

Source: patent US9428773B2, “Methods of producing acetoin and 2,3-butanediol using photosynthetic microorganisms” (The Regents of the University of California, priority 2012, dated 2016)
